Laboratory results from patent US20220135694A1, “NOVEL CD40-BINDING ANTIBODIES” (LAVA THERAPEUTICS B.V., priority 2019, published 2022).

Legend:
Vγ9Vδ2-T cells = assay: Cytokine and degranulation assay: Vγ9Vδ2-T cell lines with CD40+ CII cells; assay type: cell-based, human; settings: for degranulation of Vγ9Vδ2-T cells (CD107a): FIG. 10A
Description: (§1) CD40^+ CII cells and Vγ9Vδ2-T cells were grown as described in Example 7.
Vγ9Vδ2-T cell lines were incubated with V19S76K-5C8 or medium control for 30 minutes at 37° C. Subsequently, Vγ9Vδ2-T cells were cocultured with CII cells for 4 hours in a 1:1 ratio in the presence of Brefeldin A (10 μg/mL; B7651, Merck), GolgiStop (554724) and PECy7-conjugated anti-CD107a (561348, both BD Biosciences). Cells were then washed and surface staining was performed with Fixable Viability Dye eFluor506 (65-0866-14), AF700-conjugated anti-CD3 (56-0038-82, both Thermo Fisher Scientific) and FITC-conjugated anti-Vγ9-TCR (IM1463, Beckman Coulter) antibodies. Cytofix/Cytoperm reagent (554722) was used for detection of intracellular cytokines with BUV395-conjugated anti-IFN-γ (563563), […] anti-TNF-α (563418, all BD Biosciences) and PE/Dazzle594-conjugated anti-IL-2 (500343, Biolegend).
Samples were measured on an LSRFortessa cytometer (BD Biosciences) and analyzed with Flowjo MacV10.

CD40+ CII target cells = assay: Cytotoxicity assay: CII target cells with Vγ9Vδ2-T cells; assay type: cell-based, human; settings: 1:1 ratio
Description: as §1
CII target cells were labeled with carboxyfluorescein succinimidyl ester (CFSE; C1157, Thermo Fisher Scientific) and incubated with VHH or medium control for 30 minutes at 37° C. Target cells were then cocultured overnight with Vγ9Vδ2-T cell lines in a 1:1 ratio.
Viability was measured as described in Example 4.

[1] = tested on: CD40-transfected HEK293T cells; assay: Cytotoxicity assay: CD40-transfected HEK293T target cells with Vγ9Vδ2-T cells; assay type: cell-based, human
Description: HEK293T cells, either wildtype (WT) or transfected with human CD40, were grown as described in Example 2. Vγ9Vδ2-T cells were grown as described in Example 7.
The cytotoxicity experiment, viability measurement and flow cytometry were performed as described in Example 12.

primary MM cells = assay: Lysis of primary multiple myeloma cells by healthy donor-derived Vγ9Vδ2-T cells; assay type: cell-based, human; settings: overnight with healthy donor-derived Vγ9Vδ2-T cells, 1:1; FIG. 17B
Description: FIG. 17: V19S76K-5C8 is active against primary multiple myeloma. (A) Example of CD40 expression on primary MM cells, as detected using anti-CD40 PE antibody, clone MAB89, Beckman Couter, IM1936U. Representative histograms of 4 donors (B) Bone marrow of MM patients was cultured overnight in the presence or absence of healthy donor-derived Vγ9Vδ2-T cells in a 1:1 (Vγ9Vδ2-T:plasma cell) ratio in the absence or presence of V19S76K-5C8 (10 μM or 10 nM). Live plasma cells were quantified by flow cytometry using counting beads (n=5). (C, D) Mononuclear cells from the bone marrow of MM patients were cultured overnight with V19S76K-5C8 (VHH; 10 nM), aminobisphosphonate (ABP; 10 μM zoledronic acid (positive control)) or medium control in the presence of brefeldin, monensin and anti-CD107a to measure (C) cytokine production and (D) degranulation by flow cytometry (n=6). Data are presented as mean and SEM. *P<0.05, **P<0.01. (B-D: repeated-measures one-way ANOVA followed by Dunnett's post hoc test compared to condition without antibody).
Because CD40 is also expressed on primary multiple myeloma (MM) cells (Pellat-Deceunynck et al. (1994) Blood 84:2597) (FIG. 17A) and CD40 stimulation exerts various biological effects, including proliferation of MM cells, we assessed the efficacy of V19S76K-5C8 in primary bone marrow samples from MM patients.

MM.1s cells = assay type: in vivo, mouse
Description: FIG. 18: The bispecific […] VHH prolongs survival in vivo. Immunodeficient NSG mice were irradiated on day −1 and grafted (i.v.) with 2.5*10^6 MM.1s cells on day 0. Mice received PBS or human Vγ9Vδ2-T cells (1*10^7 cells; both i.v.) on days 7, 14 and 21 followed by PBS or V19S76K-5C8 (VHH; 5 mg/kg; both i.p.) twice weekly starting on day 9. (A) Schematic overview of treatment schedule. (B) Kaplan-Meier analyses of mouse survival (control: n=6; V19S76K-5C8 (VHH): n=6, Vγ9Vδ2-T cells: n=8, Vγ9Vδ2-T cells+V19S76K-5C8 (VHH): n=8). CD40 expression on MM.1s cells (human CD45^+CD38^+ cells) in the (C) bone marrow (BM) and (D) plasmacytomas at the time of sacrifice. (E) Body weight after 7 weeks of treatment relative to individual body weight at time of tumor injection. **P<0.01, ***P<0.001. Data are presented as mean and SD. (B: Mantel-Cox logrank test followed by Holm-Sidak's post hoc test, C: one-way ANOVA followed by Dunnett's post hoc test compared to control mice, D: unpaired t-test).
To study the effects of the bispecific VHH on tumor growth in vivo, immunodeficient NSG mice were injected with cells of MM.1s, a human multiple myeloma cell line. The tumor cells were allowed to grow out and engraft for 1 week before mice received the first of three weekly i.v. injections with either human Vγ9Vδ2-T cells or PBS, followed by twice weekly i.p. injections with V19S76K-5C8 or PBS (FIG. 18A).

B1: V19S76K-5C8: tag-less bispecific anti-CD40-anti-Vγ9Vδ2-TCR VHH, SEQ ID NO:23 (protein)
VHH: QVQLQESGGGLVQAGGSLRLSCAASGRTFGRSAMGWFRQAPGKEREFVAAIGTRGGSTKYADSVKGRFTISTDNAKNTVYLQMDSLKPEDTAVYRCAVRGPGYPSAAIFQDEYHYWGQGTQVTVSSGGGGSEVQLVESGGGLVQAGGSLRLSCAASGRPFSNYAMGWFRQAPGKEREFVAAISWSGGSTSYADSVKGRFTISRDNAKNTVYLQMNSPKPEDTAIYYCAAQFSGADYGFGRLGIRGYEYDYWGQGTQVTVSS
modifications: antibody sequence
- degranulation of Vγ9Vδ2-T cells (CD107a) (Vγ9Vδ2-T cells; CD40+ CII cells not present): did not induce this level of degranulation
- degranulation of Vγ9Vδ2-T cells (CD107a) (Vγ9Vδ2-T cells; with CD40+ CII cells, 1:1 ratio, 4 hours): the large majority of Vγ9Vδ2-T cells degranulated
- IFN-γ, TNF-α and IL-2 production by Vγ9Vδ2-T cells (Vγ9Vδ2-T cells; with or without CD40+ CII cells, FIG. 10B-D): A similar pattern was observed
- EC50 (CD40+ CII target cells; lysis of CII target cells with Vγ9Vδ2-T cells, FIG. 11B, read-out: half maximal effective concentration): 9.1 µM
- lysis of CII target cells (CD40+ CII target cells; overnight with Vγ9Vδ2-T cells, FIG. 11A): increased markedly
- lysis of CD40-transfected HEK293T cells ([1]; overnight with Vγ9Vδ2-T cells, 1:1 ratio, FIG. 12): strongly enhanced
- lysis of either WT or CD40-transfected HEK293T cells ([1]; without Vγ9Vδ2-T cells): did not induce lysis
- lysis of primary MM cells (primary MM cells): lysed primary MM cells
- median overall survival (MM.1s cells; V19S76K-5C8 5 mg/kg i.p. twice weekly plus human Vγ9Vδ2-T cells i.v., control group 47 days, FIG. 18B): 80 days
- overall survival (MM.1s cells; V19S76K-5C8 alone, without Vγ9Vδ2-T cells, FIG. 18B): Neither V19S76K-5C8 alone or the Vγ9Vδ2-T cells alone significantly improved overall survival
- overall survival versus control group (MM.1s cells; V19S76K-5C8 plus Vγ9Vδ2-T cells, FIG. 18B): lived significantly longer
- CD40 expression on malignant cells in the bone marrow versus control mice (MM.1s cells; V19S76K-5C8 plus Vγ9Vδ2-T cells, at time of sacrifice, FIG. 18C): significantly lower
- CD40 expression on malignant plasma cells in plasmacytomas (MM.1s cells; V19S76K-5C8 plus Vγ9Vδ2-T cells, at time of sacrifice, FIG. 18D): A similar trend was observed
